Data from paper PMC2137388.

Target: L chains of normal human 7S γ-globulin (human)
Assay: AUC

“L chains of normal human 7S γ-globulin (natural protein)” was tested, and the per cent of the material at the molecular weight of the dimer was 84 per cent.
